Results on two substances are retold here after PMC9683001.

Broadly, the Kd is the concentration at which binding is half-saturated. Higher therefore signals lower affinity.

This data set concerns AMV coat protein (CP) (Alfalfa mosaic virus). Put plainly: EMSA. The settings on record: 10 mM Na-phosphate pH 7.0, 1 mM EDTA, 5 U human placental RNase inhibitor, 10 uL, 30 min at room temperature; RNA preheated 65 C 5 min; 1.2% agarose gel in TAE.

In turn, 5'UTRΔ140 came in with a Kd of 41.1 µM.

Take 5'UTR-WT (AMV RNA3 5' UTR, plus strand): the Kd came to 26.1 µM. This Kd is about 1.6-fold lower than that of the substance before.
